# Data reported in patent US20100227824A1 (SYMTHERA CANADA, published 2010).
# Ends that are not written are not given here. * marks the point of attachment. Biotin = O=C1N[C@H]2[C@H](CS[C@H]2CCCCC(=O)*)N1
# T1: CTAC (CCL27) (UniProt Q9Y4X3 25-112)
# T1 construct: Bought chemokine
# T1 sequence (looked up): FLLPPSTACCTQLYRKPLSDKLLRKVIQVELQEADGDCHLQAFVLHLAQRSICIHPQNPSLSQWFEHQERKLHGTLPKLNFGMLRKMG
# T2: BCA-1 (CXCL13) (UniProt O43927 23-109)
# T2 construct: Bought chemokine
# T2 sequence (looked up): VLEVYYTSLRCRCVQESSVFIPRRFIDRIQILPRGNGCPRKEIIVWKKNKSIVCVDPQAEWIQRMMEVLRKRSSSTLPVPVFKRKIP
# T3: I-309 (CCL1) (UniProt P22362 23-96, limits assumed)
# T3 construct: Bought chemokine
# T3 sequence (looked up): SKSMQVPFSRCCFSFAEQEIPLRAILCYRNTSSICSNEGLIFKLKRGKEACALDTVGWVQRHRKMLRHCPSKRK
# T4: TECK (CCL25) (UniProt O15444 24-150)
# T4 construct: Bought chemokine
# T4 sequence (looked up): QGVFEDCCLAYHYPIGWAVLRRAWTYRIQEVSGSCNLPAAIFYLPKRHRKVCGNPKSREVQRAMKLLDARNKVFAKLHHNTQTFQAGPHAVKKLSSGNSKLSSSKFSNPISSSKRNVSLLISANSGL
# T5: Mig (CXCL9) (UniProt Q07325 23-125)
# T5 construct: Bought chemokine
# T5 sequence (looked up): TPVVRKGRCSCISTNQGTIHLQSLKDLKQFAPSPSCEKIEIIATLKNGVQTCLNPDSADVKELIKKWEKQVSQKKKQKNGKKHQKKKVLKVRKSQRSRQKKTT
# T6: Eotaxin 3 (CCL26) (UniProt Q9Y258 24-94)
# T6 construct: Bought chemokine
# T6 sequence (looked up): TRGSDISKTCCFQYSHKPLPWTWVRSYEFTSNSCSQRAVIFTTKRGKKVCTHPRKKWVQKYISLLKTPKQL
# T7: MDC(69aa) (CCL22) (UniProt O00626 25-93)
# T7 construct: Bought chemokine
# T7 sequence (looked up): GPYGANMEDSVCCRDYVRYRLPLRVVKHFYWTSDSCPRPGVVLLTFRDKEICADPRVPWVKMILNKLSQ
# T8: Eotaxin 2 (CCL24) (UniProt O00175 27-104, limits assumed)
# T8 construct: Bought chemokine
# T8 sequence (looked up): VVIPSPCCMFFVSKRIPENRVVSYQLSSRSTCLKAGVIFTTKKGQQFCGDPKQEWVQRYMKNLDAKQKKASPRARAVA
# T9: I-TAC (CXCL11) (UniProt O14625 22-94)
# T9 construct: Bought chemokine; also called I-TACK
# T9 sequence (looked up): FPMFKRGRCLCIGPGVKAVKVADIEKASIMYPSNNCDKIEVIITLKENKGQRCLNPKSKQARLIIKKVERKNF
# T10: Exodus-2 (CCL21) (UniProt O00585 24-134)
# T10 construct: Bought chemokine
# T10 sequence (looked up): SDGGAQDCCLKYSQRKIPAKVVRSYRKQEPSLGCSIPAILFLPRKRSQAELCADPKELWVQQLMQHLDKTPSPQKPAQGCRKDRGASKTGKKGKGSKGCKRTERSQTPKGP
# T11: Lymphotactin (XCL-1) (UniProt P47992 23-114, limits assumed)
# T11 construct: Bought chemokine
# T11 sequence (looked up): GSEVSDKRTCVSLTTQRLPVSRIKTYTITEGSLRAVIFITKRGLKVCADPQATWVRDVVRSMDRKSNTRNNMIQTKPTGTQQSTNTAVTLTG
# T12: IP-10 (CXCL10) (UniProt P02778 22-98)
# T12 construct: Bought chemokine
# T12 sequence (looked up): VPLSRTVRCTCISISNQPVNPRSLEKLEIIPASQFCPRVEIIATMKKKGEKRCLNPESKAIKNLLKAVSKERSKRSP
# T13: MCP-2 (CCL8) (UniProt P80075 24-99)
# T13 construct: Bought chemokine
# T13 sequence (looked up): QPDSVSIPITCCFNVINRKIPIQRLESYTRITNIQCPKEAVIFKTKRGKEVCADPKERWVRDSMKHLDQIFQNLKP
# T14: GRO-β (CXCL2) (UniProt P19875 35-107)
# T14 construct: Bought chemokine
# T14 sequence (looked up): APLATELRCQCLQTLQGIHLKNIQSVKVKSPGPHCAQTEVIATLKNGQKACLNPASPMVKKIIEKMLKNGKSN
# B1: Phage-Presented Peptide 8.8 (Ph-p8.8) (peptide)
# peptide: WVFGAAMCK
# B2: Chemokine Binding Peptide 10 (CBP10) (peptide)
# peptide: Biotin-FFGLNNC
# Legend:
# CTAC (CCL27) = target: T1, CTAC (CCL27); test: micro-array, phage-presented peptide on printed CK
# Protocol: (§1) (1) Printing: Chemokine (CK) solution (in water) was serially diluted with Print Reagent (GenTel BioSurfaces USA) to final concentrations of 50 μg and 25 μg/ml. BSA/BSA-Biotin control solutions (in water) were diluted with Print Reagent to 100 μg/ml. Amplified stock of M13 phage control (M13KEgIII Cloning Vector, New England Biolabs, Cat.No.E8101S) was stored in Tris Buffered Saline (TBS; pH7.5, 4° C.) and diluted with Print Reagent to the working titre (10^8 pfu/μl). An automated spotting robot (16 pin print tool, 0.4mm head; BioRobotics, UK) was used to print the CK/BSA control/M13 control, 5 repeats per sample (CK 25 μg/ml and 50 μg/ml; BSA 100 μg/ml; M13 20 μl), on PATH Protein Microarray Slides (GenTel, Prod.No.2-1005/-1025) at […], and 50-70% relative humidity. Printed micro-array slides were stored at Room Temperature (RT) or 4° C. for at least 24 h before use.
# (§2) (2) Blocking: Block Buffer (500 μl/partition; PATHblock, GenTel, Prod.No.2-1014) was applied to the slide for 1 hour at room temp (RT). After removal of Block Buffer, the slide was air dried for 25 minutes;
# (§3) (11) Analysis: Quantitative analysis of micro-array was performed by the SpotReader program of Niles Scientific (USA) and presented as Relative Fluorescence (RF) as a function of CK concentration. Micro-array readout (Cy3 fluorescence) was quantified to determine the relative binding affinities of a CBP for the CKs and by inference, the specificity of the CBP for binding to a CK.
# BCA-1 (CXCL13) [1] = target: T2, BCA-1 (CXCL13); test: micro-array, phage-presented peptide on printed CK
# Protocol: as §1, §2, §3
# MIP-3α (CCL20) = target: T15, MIP-3α (CCL20) (UniProt P78556 27-96); test: micro-array, phage-presented peptide on printed CK
# T15 construct: Bought chemokine
# T15 sequence (P78556 27-96 limits assumed): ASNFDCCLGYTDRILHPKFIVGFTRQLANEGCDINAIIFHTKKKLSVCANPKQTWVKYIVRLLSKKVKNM
# Protocol: as §1, §2, §3
# I-309 (CCL1) [2] = target: T3, I-309 (CCL1); test: micro-array, phage-presented peptide on printed CK
# Protocol: as §1, §2, §3
# Eotaxin (CCL11) [3] = target: T16, Eotaxin (CCL11) (UniProt P51671 24-97); test: micro-array, phage-presented peptide on printed CK
# T16 construct: Bought chemokine
# T16 sequence (P51671 24-97 limits assumed): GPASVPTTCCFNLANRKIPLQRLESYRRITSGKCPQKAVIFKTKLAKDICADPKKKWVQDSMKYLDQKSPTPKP
# Protocol: as §1, §2, §3
# SDF-1β (CXCL12) [4] = target: T17, SDF-1β (CXCL12) (UniProt P48061 22-93); test: micro-array, phage-presented peptide on printed CK
# T17 construct: Beta isoform of CXCL12; also called SDFβ
# T17 sequence (P48061 22-93 limits assumed): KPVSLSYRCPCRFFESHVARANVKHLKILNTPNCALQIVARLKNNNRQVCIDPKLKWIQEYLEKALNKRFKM
# Protocol: as §1, §2, §3
# TECK (CCL25) [5] = target: T4, TECK (CCL25); test: micro-array, phage-presented peptide on printed CK
# Protocol: as §1, §2, §3
# Mig (CXCL9) = target: T5, Mig (CXCL9); test: micro-array, phage-presented peptide on printed CK
# Protocol: as §1, §2, §3
# Eotaxin 3 (CCL26) [6] = target: T6, Eotaxin 3 (CCL26); test: micro-array, phage-presented peptide on printed CK
# Protocol: as §1, §2, §3
# MDC(69aa) (CCL22) = target: T7, MDC(69aa) (CCL22); test: micro-array, phage-presented peptide on printed CK
# Protocol: as §1, §2, §3
# SDF-1α (CXCL12) [7] = target: T18, SDF-1α (CXCL12) (UniProt P48061-2 22-89); test: micro-array, phage-presented peptide on printed CK
# T18 construct: Alpha isoform of CXCL12; also called SDFα
# T18 sequence (P48061 22-89 limits assumed): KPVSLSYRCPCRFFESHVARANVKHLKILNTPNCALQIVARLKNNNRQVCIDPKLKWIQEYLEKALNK
# Protocol: as §1, §2, §3
# MCP-1 (CCL2) [8] = target: T19, MCP-1 (CCL2) (UniProt P13500 24-99); test: micro-array, phage-presented peptide on printed CK
# T19 construct: Bought chemokine
# T19 sequence (P13500 24-99 limits assumed): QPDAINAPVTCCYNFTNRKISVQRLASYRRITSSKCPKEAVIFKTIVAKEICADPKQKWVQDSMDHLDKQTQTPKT
# Protocol: as §1, §2, §3
# Eotaxin 2 (CCL24) [9] = target: T8, Eotaxin 2 (CCL24); test: micro-array, phage-presented peptide on printed CK
# Protocol: as §1, §2, §3
# I-TAC (CXCL11) [10] = target: T9, I-TAC (CXCL11); test: micro-array, phage-presented peptide on printed CK
# Protocol: as §1, §2, §3
# MCP-4 (CCL13) = target: T20, MCP-4 (CCL13) (UniProt Q99616 24-98); test: micro-array, phage-presented peptide on printed CK
# T20 construct: Bought chemokine
# T20 sequence (Q99616 24-98 limits assumed): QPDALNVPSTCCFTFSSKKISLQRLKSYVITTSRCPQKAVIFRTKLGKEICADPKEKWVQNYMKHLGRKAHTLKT
# Protocol: as §1, §2, §3
# Exodus-2 (CCL21) = target: T10, Exodus-2 (CCL21); test: micro-array, phage-presented peptide on printed CK
# Protocol: as §1, §2, §3
# Lymphotactin (XCL-1) [11] = target: T11, Lymphotactin (XCL-1); test: micro-array, phage-presented peptide on printed CK
# Protocol: as §1, §2, §3
# IP-10 (CXCL10) = target: T12, IP-10 (CXCL10); test: micro-array, phage-presented peptide on printed CK
# Protocol: as §1, §2, §3
# MCP-2 (CCL8) = target: T13, MCP-2 (CCL8); test: micro-array, phage-presented peptide on printed CK
# Protocol: as §1, §2, §3
# BCA-1 (CXCL13) [12] = target: T2, BCA-1 (CXCL13); test: micro-array, biotinylated peptide on printed CK
# I-309 (CCL1) [13] = target: T3, I-309 (CCL1); test: micro-array, biotinylated peptide on printed CK
# Eotaxin (CCL11) [14] = target: T16, Eotaxin (CCL11); test: micro-array, biotinylated peptide on printed CK
# SDF-1β (CXCL12) [15] = target: T17, SDF-1β (CXCL12); test: micro-array, biotinylated peptide on printed CK
# TECK (CCL25) [16] = target: T4, TECK (CCL25); test: micro-array, biotinylated peptide on printed CK
# Eotaxin 3 (CCL26) [17] = target: T6, Eotaxin 3 (CCL26); test: micro-array, biotinylated peptide on printed CK
# SDF-1α (CXCL12) [18] = target: T18, SDF-1α (CXCL12); test: micro-array, biotinylated peptide on printed CK
# MCP-1 (CCL2) [19] = target: T19, MCP-1 (CCL2); test: micro-array, biotinylated peptide on printed CK
# Eotaxin 2 (CCL24) [20] = target: T8, Eotaxin 2 (CCL24); test: micro-array, biotinylated peptide on printed CK
# I-TAC (CXCL11) [21] = target: T9, I-TAC (CXCL11); test: micro-array, biotinylated peptide on printed CK
# Lymphotactin (XCL-1) [22] = target: T11, Lymphotactin (XCL-1); test: micro-array, biotinylated peptide on printed CK
# GRO-β (CXCL2) = target: T14, GRO-β (CXCL2); test: micro-array, biotinylated peptide on printed CK
binder,measurement,setting,value
B1,binding result,CTAC (CCL27),binds
same,binding result,BCA-1 (CXCL13) [1],binds
same,binding result,MIP-3α (CCL20),binds
same,binding result,I-309 (CCL1) [2],binds
same,binding result,Eotaxin (CCL11) [3],binds
same,binding result,SDF-1β (CXCL12) [4],binds
same,binding result,TECK (CCL25) [5],binds
same,binding result,Mig (CXCL9),binds
same,binding result,Eotaxin 3 (CCL26) [6],binds
same,binding result,MDC(69aa) (CCL22),binds
same,binding result,SDF-1α (CXCL12) [7],binds
same,Relative Fluorescence Units (RFU),MCP-1 (CCL2) [8],> 15000 RFU
same,binding result,Eotaxin 2 (CCL24) [9],binds
same,binding result,I-TAC (CXCL11) [10],binds
same,Relative Fluorescence Units (RFU),MCP-4 (CCL13),> 15000 RFU
same,binding result,Exodus-2 (CCL21),binds
same,binding result,Lymphotactin (XCL-1) [11],binds
same,binding result,IP-10 (CXCL10),binds
same,Relative Fluorescence Units (RFU),MCP-2 (CCL8),> 15000 RFU
B2,binding result,BCA-1 (CXCL13) [12],binds
same,binding result,I-309 (CCL1) [13],binds
same,binding result,Eotaxin (CCL11) [14],binds
same,binding result,SDF-1β (CXCL12) [15],binds
same,binding result,TECK (CCL25) [16],binds
same,binding result,Eotaxin 3 (CCL26) [17],binds
same,binding result,SDF-1α (CXCL12) [18],binds
same,Relative Fluorescence Units (RFU),MCP-1 (CCL2) [19],> 600 RFU
same,binding result,Eotaxin 2 (CCL24) [20],binds
same,binding result,I-TAC (CXCL11) [21],binds
same,binding result,Lymphotactin (XCL-1) [22],binds
same,binding result,GRO-β (CXCL2),binds
